This is an account of results in US12084521B2, “TLR9 inhibitors to suppress inflammatory response to pathogens” (University Of Maryland, Baltimore, priority 2018, dated 2024).

Experiment [1] deals with T1, MyD88 TIR (Homo sapiens, UniProt Q99836).
T1 construct: expressed in transfected cells; host or cells: HeLa
As to the kind of experiment: FLIM/FRET binding of Cy3-labeled peptides to Cer-fused TIR in HeLa cells. The protocol: (§1) Three million HeLa cells were transfected with 10 μg of MyD88-Cer, TIRAP-Cer, TRAM-Cer, TLR2-Cer, TLR4 TIR-Cer, or TLR9 TIR-Cer expression vectors using a Lipofectamine™ 3000 kit from Invitrogen™ per manufacturer recommendations. Twenty four hours later, the transfected cells were trypsinized and reseeded into a 50-well gasket (Grace Bio-Labs™) mounted on a microscope slide at the density 8000 cells/well. The next day, cells were treated with Cy3-9R34-ΔN or Cy3-9R11 for 1 hour and fixed on the slides with a 4% paraformaldehyde solution.
(§2) Fluorescence lifetime images were acquired using the Alba V FLIM™ system (ISS™ Inc.). The excitation was from the laser diode 443 nm coupled with scanning module (ISS™) through multiband dichroic filter 443/532/635 nm (Semrock™) to Olympus™ IX71S microscope with objective 20×0.45 NA (UPlan™ Olympus™). Emission was observed through bandpass filter […] (Chroma Technology™) and detected by a photomultiplier H7422-40 (Hamamatsu™). Measurements were performed using frequency domain (FD) and time domain (TD) modalities of the FLIM system. FD FLIM data were acquired using ISS™ A320 FastFLIM™ electronics with n harmonics of 20 MHz laser repetition frequency (n=1, 2, 3, 4, 5, 6). FastFLIM™ was calibrated using fluorescein in buffer pH 8.0 as a standard with a single lifetime of 4.0 ns. TD FLIM images were acquired using time-correlated single photon counting TCSPC™ Model SPC-830 (Becker & Hick™).
(§3) Images (256×256 pixels) were acquired with resolution varied in the range ˜0.4-0.7 μm/pixel, using scan speed 1 ms/pixel. To avoid pixel intensity saturation in bright cells and to improve the signal from dim cells, two to five overlapping scans were used for acquisition of FLIM images. Image sizes varied from 100×100 to 180×180 μm to accommodate multiple cells. FLIM data were analyzed with VistaVision™ Suite software (Vista™ v.212 from ISST). Fluorescence lifetime was determined using single- and bi-exponential intensity decay models. Average lifetime images were generated based on pixel-by-pixel analysis using the combined signal of two neighboring pixels in all directions (bin 2=25 pixels). The binning was used to improve the signal for analysis. The average lifetimes were calculated from fitted parameters, decay times τi and amplitudes αi, τa=Σαiτi. The bi-exponential fitting procedure was performed with one lifetime component fixed at 3.1 nsec, which was found common for most images. To calculate the effective FRET efficiency (E), average lifetimes of the donor only images (τD) and donor-acceptor images (τDA) were used, E=1−τDA/τD.
(§4) To identify potential binding partners of inhibitory peptides a FRET approach coupled with Fluorescence Lifetime Imaging Microscopy (FLIM) was used. HeLa cells were transiently transfected with an expression vector that encodes a TIR domain fused with Cerulean fluorescent protein (Cer). Cells were treated with various concentrations of a Cy3-labeled inhibitory peptide 48 hours after transfection. Cy3 is a suitable FRET acceptor for Cer fluorescence. A direct molecular interaction of a Cy3-labeled peptide with Cer-fused TIR domain should quench Cer fluorescence, leading to a decreased fluorescence lifetime.
(§5) TLR9, MyD88, and TIRAP were selected as potential primary binding partners for Cy3-9R34-ΔN and Cy3-9R11. Cer-fused TLR2 and TLR4 TIR domains, and Cer not fused to a TIR, were used as controls. […] Therefore, the TIRAP-Cer with Cy3-2R9 was used as a positive binding control. Binding of Cy3-labeled CPDPs to Cerulean- (Cer-) labeled TIR domains was tested as follows. Fluorescence Lifetime IMages (FLIM) were made of HeLa cells expressing Cer not fused with a TIR domain (upper row) or fused with TLR9 TIR or TIRAP TIR (middle and bottom rows) and treated with a Cy3-labeled decoy peptide for 1 hour.
(§6) A progressive shift of average fluorescence lifetime towards lower values observed with increasing peptide concentrations indicates the binding between donor and acceptor moieties. […]

Experiment [2] addresses T2, TIRAP TIR (Homo sapiens, UniProt P58753).
T2 construct: fused with TLR9 TIR or TIRAP TIR; expressed in transfected cells; host or cells: HeLa
The description is as above. Conditions: for quenching of TIRAP-Cer fluorescence: HeLa cells, Cy3-peptide 2.5-40 μM, 1 hour. The protocol:
as §1, §2, §3, §4, §5, §6

Experiment [3] addresses T3, TLR9 TIR (Homo sapiens, UniProt Q9NR96).
T3 construct: expressed in transfected cells; host or cells: HeLa
T3 sequence (Q9NR96 868-1013 limits assumed): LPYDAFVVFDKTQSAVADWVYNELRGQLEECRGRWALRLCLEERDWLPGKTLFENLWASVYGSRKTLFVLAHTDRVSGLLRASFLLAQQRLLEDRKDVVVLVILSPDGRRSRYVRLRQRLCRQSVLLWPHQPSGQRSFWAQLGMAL
Described as above. To be noted: for FRET efficiency, TLR9 TIR-Cer: HeLa cells, Cy3-peptide 2.5-40 μM, 1 hour, dose-dependent. How it is done:
as §1, §2, §3, §4, §5, §6

Experiment [4] has as its system Cer not fused to a TIR domain. As to the kind of experiment: FLIM/FRET control construct in HeLa cells. Conditions: peptide 40 μM. The class given is binding. How it is done: as §1, §2, §3, §5
The target in experiment [5] is T4, TLR2 TIR-Cer (Homo sapiens, UniProt O60603).
T4 construct: Cer-fused TLR2 and TLR4 TIR domains; expressed in transfected cells; host or cells: HeLa
As to the kind of experiment: FLIM/FRET control construct in HeLa cells. Format: binding. To be noted: peptide 40 μM. How it is done:
as §1, §2, §3, §5

In experiment [6] the test system is TLR4 TIR-Cer. As to the kind of experiment: FLIM/FRET control construct in HeLa cells. Format: binding. To be noted: peptide 40 μM. How it is done:
as §1, §2, §3, §5

Experiment [7] addresses T5, TRAM-Cer (Homo sapiens, UniProt Q86XR7).
T5 construct: expressed in transfected cells; host or cells: HeLa
As to the kind of experiment: FLIM/FRET control construct in HeLa cells. The class given is binding. Conditions: peptide 40 μM. The protocol: as §1, §2, §3, §5

No end group written: not given here. Cy3 = Cy3 fluorescent dye label

T2 sequence (P58753 84-213 limits assumed): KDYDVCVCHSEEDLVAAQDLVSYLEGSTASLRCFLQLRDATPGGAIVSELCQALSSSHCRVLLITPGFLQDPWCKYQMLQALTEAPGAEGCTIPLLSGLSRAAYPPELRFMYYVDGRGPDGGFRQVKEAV
T1 sequence (Q99836 159-293 limits assumed): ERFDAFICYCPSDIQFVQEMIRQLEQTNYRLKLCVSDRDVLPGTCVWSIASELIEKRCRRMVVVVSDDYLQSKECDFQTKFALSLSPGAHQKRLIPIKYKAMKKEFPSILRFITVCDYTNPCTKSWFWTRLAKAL
T4 sequence (O60603 639-782 limits assumed): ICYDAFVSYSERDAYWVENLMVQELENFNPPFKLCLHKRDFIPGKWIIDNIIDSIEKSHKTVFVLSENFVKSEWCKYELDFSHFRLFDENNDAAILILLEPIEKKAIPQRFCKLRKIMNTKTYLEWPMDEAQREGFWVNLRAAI
T5 sequence (Q86XR7 whole entry): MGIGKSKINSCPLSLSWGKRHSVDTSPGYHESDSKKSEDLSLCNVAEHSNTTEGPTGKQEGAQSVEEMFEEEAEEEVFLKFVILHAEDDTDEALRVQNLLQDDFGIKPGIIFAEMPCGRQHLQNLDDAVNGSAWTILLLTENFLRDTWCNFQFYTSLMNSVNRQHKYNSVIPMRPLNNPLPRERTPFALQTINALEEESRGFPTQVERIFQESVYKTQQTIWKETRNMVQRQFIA

On to “Cy3-9R11: Cy3-labeled 9R11 peptide, Cy3 label placed at the peptide N-terminus (Cy3-RQIKIWFQNRRMKWKKRSFWAQLGMALTRD)”, for which, in experiment [1], the “quenching of MyD88-Cer fluorescence lifetime” value was “detectable, but less effective”. Besides, the “quenching of TIRAP-Cer fluorescence” value in experiment [2] is given as “induced FRET from TIRAP-Cer, but only when used at higher concentrations of 10 or 40 μM”. In experiment [3], the “FRET efficiency, TLR9 TIR-Cer” value was 3-27%. Besides, in experiment [4], the “fluorescence lifetime of Cer not fused to a TIR domain (unspecific quenching)” value was “Unspecific Cer quenching”.
“Cy3-9R34-ΔN: Cy3-labeled 9R34-ΔN peptide, Cy3 label placed at the peptide N-terminus (Cy3-RQIKIWFQNRRMKWKKALRLCLEERD)”: in experiment [1] (peptide 40 μM, considerably less than on TLR9 and TIRAP TIR-Cer), the “quenching of MyD88 TIR-Cer” value is “notable”. The “average fluorescence lifetime of Cer-labeled MyD88 TIR” value in experiment [1] (peptide 2.5 and 10 μM) was “not affected”. Also, in experiment [2] (2.5 μM), the “effect on TIRAP-Cer fluorescence at the lowest peptide concentration” value is “absence of the effect”. Further, in experiment [2], the “quenching of TIRAP-Cer fluorescence” value is “notably quenched”. In addition, the “FRET efficiency, TLR9 TIR-Cer” value in experiment [3] is reported as 9-23%. Further, the “fluorescence lifetime of TLR9 TIR-Cer construct” value in experiment [3] (minimal peptide concentration 2.5 μM) is on record as “decreased”. Further, the “fluorescence lifetime of Cer not fused to a TIR domain (unspecific quenching)” value in experiment [4] was “slightly affected”. In addition, in experiment [5], the “fluorescence lifetime of control TLR2 TIR-Cer” value is “slightly affected”. Also, the “fluorescence lifetime of control TLR4 TIR-Cer” value in experiment [6] is “slightly affected”. In experiment [7], the “fluorescence lifetime of control TRAM-Cer” value is recorded as “slightly affected”.
